Measured values reported in patent publication US20060024786A1, “WASP and N-WASP constructs and methods of expressing such constructs” (Cytokinetics, Inc., priority 2004, published 2006).
Entries after “also recorded” stand apart in the source; their conditions may differ. Each block holds one substance with its values, some of them ahead of it.

Experiments:
full length human WASP [1] = biological target: T1, full length human WASP (Homo sapiens, UniProt P42768); experiment: Pyrene-actin polymerization assay: activation of full length WASP by upstream regulators; assay type: biochemical; conditions: for activation of FL WASP: Arp2/3 complex 4.0 nM, actin 3.5 μM
T1 construct: ProtA (part of TAP tag, behind the tev site) (C, cleaved yes); made in house; host or cells: human 293 cells (Freestyle 293 expression system)
T1 sequence (P42768 whole entry, added parts left off): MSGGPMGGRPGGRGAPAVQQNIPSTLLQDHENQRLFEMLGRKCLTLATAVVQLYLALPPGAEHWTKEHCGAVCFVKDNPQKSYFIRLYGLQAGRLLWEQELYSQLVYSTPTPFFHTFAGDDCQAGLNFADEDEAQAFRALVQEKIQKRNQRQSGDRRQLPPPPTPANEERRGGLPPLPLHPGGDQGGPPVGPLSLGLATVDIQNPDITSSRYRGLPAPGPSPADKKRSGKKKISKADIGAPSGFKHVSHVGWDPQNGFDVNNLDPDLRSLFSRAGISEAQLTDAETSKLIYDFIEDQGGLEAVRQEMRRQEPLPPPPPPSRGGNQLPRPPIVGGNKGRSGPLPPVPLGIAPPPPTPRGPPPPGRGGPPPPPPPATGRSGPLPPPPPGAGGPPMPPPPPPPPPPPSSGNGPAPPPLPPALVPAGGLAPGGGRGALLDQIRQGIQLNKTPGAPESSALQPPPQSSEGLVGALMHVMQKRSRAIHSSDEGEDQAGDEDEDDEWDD
Experimental: (§1) Samples containing candidate agents (individually or as mixtures) are placed into wells on a multi-well plate. Mix 1 is added to each of the wells and mixed with the candidate agent. A sample of Mix 2 is then introduced into each well and the resulting mixture thoroughly mixed. Typically, Mix 1 and Mix 2 are mixed in 1:1 ratio (e.g., 50 μl each of Mix 1 and Mix 2).
(§2) Actin polymerization is measured as a function of time by exciting pyrene at 365 nm and by detecting an increase in fluorescence emission at 407 nm. The change in fluorescence over time is utilized to determine a fluorescence parameter (e.g., maximal velocity, time to half maximal fluorescence intensity or area under the curve of a plot of fluorescence versus time).
Full length WASP was prepared as described in Example 1. This protein was then used as a substitute GST-105WASP in methods that were otherwise identical to the methods described in Example 7.
(§3) Full length human WASP and N-WASP were TAP-tagged (Rigaut, et al. (1999) Nat. Biotechnology 17:1030, which is incorporated herein by reference in its entirety for all purposes) at the C-terminus (see, also Examples 1 and 2). The recombinant WASP and N-WASP were expressed in human 293 cells and then purified using a TAP-tag protocol as described in Example 5.
The Arp2/3 complex in these experiments was 4.0 nM and the actin concentration 3.5 μM.
The effect of PIP2on the ability of upstream regulators to regulate FL WASP was evaluated in a fifth set of experiments. The results are depicted in graphical format in FIG. 9.

full length human WASP [2] = biological target: T1, full length human WASP; experiment: as above; assay type: biochemical; conditions: total concentration of Arp2/3 complex in the assay 4.2 nM
full length human N-WASP = biological target: T2, full length human N-WASP (Homo sapiens, UniProt O00401); experiment: Pyrene-actin polymerization assay: activation of full length N-WASP by upstream regulators; assay type: biochemical; conditions: for Barbed ends: total concentration of Arp2/3 complex in the assay 4.2 nM; for activation of FL N-WASP: Arp2/3 complex 4.0 nM, actin 3.5 μM
T2 construct: ProtA (part of TAP tag, behind the tev site) (C, cleaved yes); made in house; host or cells: human 293 cells; cDNA amplified from HeLa total RNA
T2 sequence (O00401 with tags, fused parts or gaps Y76H/A201G/F223S/S242L/D248E/S252L/N296S/A333E): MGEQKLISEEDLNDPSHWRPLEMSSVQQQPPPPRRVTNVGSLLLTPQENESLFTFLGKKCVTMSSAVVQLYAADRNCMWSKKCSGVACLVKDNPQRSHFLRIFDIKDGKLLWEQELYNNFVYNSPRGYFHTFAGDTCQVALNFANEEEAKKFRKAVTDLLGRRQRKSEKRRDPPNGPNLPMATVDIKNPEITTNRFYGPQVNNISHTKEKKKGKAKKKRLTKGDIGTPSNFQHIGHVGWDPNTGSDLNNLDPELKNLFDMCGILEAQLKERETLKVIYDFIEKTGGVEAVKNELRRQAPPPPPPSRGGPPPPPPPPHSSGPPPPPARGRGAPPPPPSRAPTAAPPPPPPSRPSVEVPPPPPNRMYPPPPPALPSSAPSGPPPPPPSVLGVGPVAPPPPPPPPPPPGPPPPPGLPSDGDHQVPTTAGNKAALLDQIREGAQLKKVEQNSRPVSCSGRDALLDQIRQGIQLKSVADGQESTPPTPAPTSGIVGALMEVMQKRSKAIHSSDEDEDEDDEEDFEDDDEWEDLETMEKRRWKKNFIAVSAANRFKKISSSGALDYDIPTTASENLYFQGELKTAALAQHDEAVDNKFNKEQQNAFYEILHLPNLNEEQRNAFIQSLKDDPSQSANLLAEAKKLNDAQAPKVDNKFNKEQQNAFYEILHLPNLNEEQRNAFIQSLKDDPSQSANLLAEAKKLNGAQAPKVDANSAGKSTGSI
Experimental: as §1, §2
Full length N-WASP was prepared as described in Example 2. This protein was then used as a substitute GST-105 WASP in methods that were otherwise identical to the methods described in Example 7.
as §3
Arp2/3 and actin concentrations were as described for the third experiment.
Another set of experiments similar to the fifth set were conducted using FL N-WASP.

[3] = Solubility of purified full-length protein; assay type: physicochemical; conditions: expressed in 293 cells, TAP-tag purification
Arp2/3 complex = biological target: T3, Arp2/3 complex; experiment: Arp2/3-mediated actin polymerization stimulated by WASP/N-WASP proteins; assay type: biochemical, human
T3 construct: prepared from an Arp2/3 source such as human platelets; from tissue; host or cells: cell extract, e.g. human platelets
Experimental: as §1, §2
In a second set of experiments, the ability of various truncated forms of WASP were compared to the activity of the full-length protein. The polymerization assays were conducted in the presence of 500 nM Cdc42, 2.5 nm purified Arp2/3 complex and 3.5 μM actin. FL-WASP, 105 WASP and the VCA (see Example 7) domain were tested. The results of these trials were plotted to obtain EC50 values. The results are provided in FIG. 6 and in the chart below.

[4] = 500 nM Cdc42, 2.5 nm Arp2/3 complex, 3.5 μM actin, from EC50 values

- acceleration of actin polymerization by activator (full length human WASP [1]; FL-WASP plus activator versus FL-WASP alone, FIG. 5): 13 fold
- Barbed ends (full length human WASP [2]): 3.8 nM
- acceleration of actin polymerization by activator (full length human N-WASP; N-WASP plus activator versus N-WASP alone, FIG. 5): 13 fold
- Barbed ends (full length human N-WASP; N-WASP): 1.3 nM
Substance: Cdc42: Rho-family GTPase, upstream regulator; GST-tagged Cdc42 GTP with G12 mutated to V, SEQ ID NO:26
- activation of FL WASP (full length human WASP [1]; FIG. 7): can fully activate FL WASP; also recorded: more effective on WASP-stimulated actin nucleation by Arp2/3 complex than on N-WASP-stimulated actin nucleation

Substance: FL-WASP: full-length Wiskott-Aldrich syndrome protein, SEQ ID NO:2; expressed TAP-tagged in human 293 cells
- solubility of purified protein [3]: completely soluble
- activity relative to 105 WASP (Arp2/3 complex; [4]): approximately 20 times
- potency relative to the VCA/WA domain (Arp2/3 complex; [4]): more than 70 times
- stimulation of actin polymerization by the protein by itself (Arp2/3 complex; without upstream regulators, FIG. 5): only weakly stimulate actin polymerization

- Barbed ends % of max. (full length human WASP [1]; WASP, after subtracting baseline (WASP without activators)): 50%
- Barbed ends (full length human WASP [2]): 2.6 nM
- Barbed ends % of max. (full length human N-WASP; N-WASP, after subtracting baseline (without activators)): 78%
- Barbed ends (full length human N-WASP; N-WASP): 3.5 nM
Substance: Nck2: upstream regulator; GST-tagged NCK2, SEQ ID NO:40
- dose dependence of barbed end concentration / effect at higher concentrations (full length human WASP [1]; FL WASP, FIG. 7): bell shaped dependence; also recorded: inhibited
- activation of FL N-WASP (full length human N-WASP; FIG. 8): only activators tested that can stimulate production of maximal concentration of barbed ends
- dose dependence of barbed end concentration / effect at higher concentrations (full length human N-WASP; FL N-WASP, FIG. 8): bell shaped dose dependence; also recorded: inhibited
- comparison as N-WASP activator (full length human N-WASP; Rac1 versus Cdc42 in the absence of PIP2 vesicles, Nck2 on N-WASP versus WASP, FIG. 8): significantly better activator of N-WASP than WASP

- activation of FL WASP (full length human WASP [1]; FIG. 7): could not activate
- activation of FL N-WASP (full length human N-WASP; FIG. 8): could not activate
Substance: RhoA: GTPase; GST-tagged RhoA GTP, SEQ ID NO:30

- activation of FL WASP (full length human WASP [1]; FIG. 7): could not activate
- activation of FL N-WASP (full length human N-WASP; FIG. 8): could not activate
Substance: RhoC: GTPase; GST-tagged RhoC GTP with G14 mutated to V, SEQ ID NO:28

- effect of PIP2 on FL WASP (full length human WASP [1]; in the absence of small GTPases or Nck, FIG. 9): minimal, if any, effect
Substance: phosphatidylinositol-4,5-bisphosphate [PIP2, reference compound]
